In paper PMC2686732, “Both Ca^2+ and Zn^2+ are essential for S100A12 protein oligomerization and function” (BMC Biochemistry, 2009):

Key:
[1] = molecular target: the molecule itself; assay: native gel or EMSA; native PAGE, 7.5% gel, Tris-glycine pH 8.8, 14 ug S100A12 in 2 mM Ca
[2] = molecular target: the molecule itself; assay: native gel or EMSA; native PAGE, 7.5% gel, Tris-glycine pH 8.8, 14 ug S100A12 with 5 uM Zn
[3] = molecular target: the molecule itself; assay: SEC; Superdex 200, 50 mM Tris-HCl pH 7.5, 200 mM NaCl, 20 C, 1 mg/ml injected; no ions added
[4] = molecular target: the molecule itself; assay: native gel or EMSA; native PAGE, S100A12 in the presence of both Ca and Zn (also with the copper I chelator BCS)
[5] = molecular target: the molecule itself; assay: native gel or EMSA; native PAGE, S100A12 with zinc and calcium plus TPEN (zinc chelator) or EDTA (divalent ion chelator)
[6] = molecular target: T1, Human RAGE-Fc fusion protein (human, UniProt Q15109 23-342); assay: SPR; S100A12 immobilised (2,933 RU) by amine coupling on CM5; RAGE/Fc (125 nM) injected 3 min at 30 ul/min; HBS-P buffer with 1 mM Ca2+ and 20 uM Zn2+; 1:1 Langmuir model; conditions: both partners purified
T1 construct: RAGE (Receptor for Advanced Glycation End products), human; also called recombinant human RAGE/Fc; source: bought: R&D Systems
T1 sequence (Q15109 23-342): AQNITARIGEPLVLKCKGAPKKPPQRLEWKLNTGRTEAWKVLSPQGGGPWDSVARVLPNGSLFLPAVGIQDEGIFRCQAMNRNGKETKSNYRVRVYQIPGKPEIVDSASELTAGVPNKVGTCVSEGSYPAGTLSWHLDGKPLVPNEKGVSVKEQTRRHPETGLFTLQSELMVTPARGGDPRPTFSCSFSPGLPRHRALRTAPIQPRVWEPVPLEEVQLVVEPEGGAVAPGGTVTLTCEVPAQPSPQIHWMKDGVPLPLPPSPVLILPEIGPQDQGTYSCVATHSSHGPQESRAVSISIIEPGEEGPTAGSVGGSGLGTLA

B1: Recombinant full-length human S100A12 (natural protein, UniProt P80511 1-92, looked up)
chain: MTKLEEHLEGIVNIFHQYSVRKGHFDTLSKGELKQLLTKELANTIKNIKDKAVIDEIFQGLDANQDEQVDFQEFISLVAIALKAAHYHTHKE
notes: S100A12, human, full length; expressed from a modified pQE60 vector with a stop codon inserted so that the protein has no histidine tag; Oligomeric state (dimer, tetramer, hexamer) depends on Ca2+ and Zn2+ in the sample; [U-15N] labelled for the NMR experiments; also called apo-S100A12; Ca2+-S100A12; source: E. coli, purified (Phenyl-Sepharose, ResQ ion exchange)
Q: For B1, which “stoichiometry N” value [1] is on record?
A: ~6

Q: And the “stoichiometry N” value [2]?
A: ~4

Q: And the “stoichiometry N” value [3]?
A: 4

Q: What about the “stoichiometry N” value [4] of the same binder?
A: 6

Q: And the “stoichiometry N” value [5]?
A: 2

Q: And the Kd [6]?
A: 4.6 nM

Q: And the koff [6]?
A: 0.00032 s⁻¹

Q: And the kon [6]?
A: 68000 M⁻¹ s⁻¹
